T1: PARD3B_1, Q8TEW8
T1 sequence (Q8TEW8 196-299, limits assumed, looked up): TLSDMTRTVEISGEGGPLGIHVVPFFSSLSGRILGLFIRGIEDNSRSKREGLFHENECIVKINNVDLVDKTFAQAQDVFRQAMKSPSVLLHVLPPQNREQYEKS

T2: NHERF3_3, Q5T2W1
T2 sequence (Q5T2W1 238-333, limits assumed, looked up): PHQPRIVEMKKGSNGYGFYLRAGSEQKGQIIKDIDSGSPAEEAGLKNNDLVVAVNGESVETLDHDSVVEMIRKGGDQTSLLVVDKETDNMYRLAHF

T3: NHERF3_1, Q5T2W1
T3 sequence (Q5T2W1 4-100, limits assumed, looked up): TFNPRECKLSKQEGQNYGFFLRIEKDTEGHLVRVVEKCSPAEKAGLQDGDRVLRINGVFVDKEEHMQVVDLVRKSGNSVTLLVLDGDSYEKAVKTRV

T4: SNTG1, Q9NSN8
T4 sequence (Q9NSN8 52-150, limits assumed, looked up): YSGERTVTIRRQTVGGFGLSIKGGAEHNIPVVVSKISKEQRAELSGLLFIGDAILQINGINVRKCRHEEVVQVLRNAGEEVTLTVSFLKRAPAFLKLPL

T5: SNTG2, Q9NY99
T5 sequence (Q9NY99 68-166, limits assumed, looked up): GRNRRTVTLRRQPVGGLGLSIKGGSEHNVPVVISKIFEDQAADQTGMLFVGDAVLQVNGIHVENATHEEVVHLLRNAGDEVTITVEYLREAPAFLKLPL

T6: MPP6, Q9NZW5
T6 sequence (Q9NZW5 125-219, limits assumed, looked up): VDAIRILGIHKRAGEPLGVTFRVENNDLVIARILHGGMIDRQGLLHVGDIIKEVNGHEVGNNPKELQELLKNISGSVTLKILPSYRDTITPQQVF

T7: LRRC7, Q96NW7
T7 sequence (Q96NW7 1440-1537, limits assumed, looked up): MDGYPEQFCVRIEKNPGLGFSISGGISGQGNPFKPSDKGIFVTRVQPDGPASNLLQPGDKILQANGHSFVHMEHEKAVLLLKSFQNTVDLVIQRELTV

T8: TIAM2, Q8IVF5
T8 sequence (Q8IVF5 885-986, limits assumed, looked up): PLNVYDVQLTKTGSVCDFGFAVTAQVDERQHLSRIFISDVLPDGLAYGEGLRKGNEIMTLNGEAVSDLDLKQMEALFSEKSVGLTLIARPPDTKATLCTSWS


What was measured:
Test in all cases: holdup assay
Parameters in all cases: key: below the threshold = too weak to quantify, mostly under pKd 3.1 to 4
Details in all cases: plain residues with an end cap or a label only (N-terminal biotin on a linker: ado-ado)
PARD3B_1, Q8TEW8 = target: T1, PARD3B_1, Q8TEW8
PTPN3, P26045 = target: PTPN3, P26045
Chain of PTPN3, P26045 (P26045 505-587): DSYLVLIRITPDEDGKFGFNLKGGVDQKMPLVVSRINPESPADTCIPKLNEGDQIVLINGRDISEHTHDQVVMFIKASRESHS

NHERF3_3, Q5T2W1 = target: T2, NHERF3_3, Q5T2W1
NHERF3_1, Q5T2W1 = target: T3, NHERF3_1, Q5T2W1
DLG1_3, Q12959 = target: DLG1_3, Q12959
Chain of DLG1_3, Q12959 (Q12959 457-571): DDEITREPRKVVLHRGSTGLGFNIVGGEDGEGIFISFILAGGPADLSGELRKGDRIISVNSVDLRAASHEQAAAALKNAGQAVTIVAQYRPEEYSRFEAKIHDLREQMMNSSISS

LAP2, Q96RT1 = target: LAP2, Q96RT1
Chain of LAP2, Q96RT1 (Q96RT1 other isoform, or with tags, fused parts or gaps): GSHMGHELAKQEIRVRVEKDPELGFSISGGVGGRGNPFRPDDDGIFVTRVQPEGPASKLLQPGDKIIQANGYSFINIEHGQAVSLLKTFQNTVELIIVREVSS

SCRIB_1, Q14160 = target: SCRIB_1, Q14160
Chain of SCRIB_1, Q14160 (Q14160 718-814): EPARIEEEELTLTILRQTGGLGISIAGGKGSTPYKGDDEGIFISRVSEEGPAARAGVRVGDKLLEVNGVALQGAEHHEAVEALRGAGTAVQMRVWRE

DLG4_3, P78352 = target: DLG4_3, P78352
Chain of DLG4_3, P78352 (P78352 306-403): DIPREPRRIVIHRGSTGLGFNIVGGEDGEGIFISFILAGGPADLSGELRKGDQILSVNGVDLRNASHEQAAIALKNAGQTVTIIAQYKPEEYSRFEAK

ARHGEF12, Q9NZN5-2 = target: ARHGEF12, Q9NZN5-2
Chain of ARHGEF12, Q9NZN5-2 (Q9NZN5 other isoform, or with tags, fused parts or gaps): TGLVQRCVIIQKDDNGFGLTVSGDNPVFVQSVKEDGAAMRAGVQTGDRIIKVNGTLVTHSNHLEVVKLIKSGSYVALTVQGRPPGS

DLG4_2, P78352 = target: DLG4_2, P78352
Chain of DLG4_2, P78352 (P78352 155-259): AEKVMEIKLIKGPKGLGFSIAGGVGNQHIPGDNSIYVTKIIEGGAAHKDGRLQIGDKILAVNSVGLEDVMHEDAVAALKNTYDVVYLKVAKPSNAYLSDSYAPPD

SNTG1, Q9NSN8 = target: T4, SNTG1, Q9NSN8
MAST2, Q6P0Q8 = target: MAST2, Q6P0Q8
Chain of MAST2, Q6P0Q8 (Q6P0Q8 1099-1202): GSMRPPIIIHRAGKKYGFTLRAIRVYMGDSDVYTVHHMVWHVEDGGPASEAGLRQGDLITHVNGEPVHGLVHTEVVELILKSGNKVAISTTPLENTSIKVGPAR

LDB3, O75112 = target: LDB3, O75112
Chain of LDB3, O75112 (O75112 1-94): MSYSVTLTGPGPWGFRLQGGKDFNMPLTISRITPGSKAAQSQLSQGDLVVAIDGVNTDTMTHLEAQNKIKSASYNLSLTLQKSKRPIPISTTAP

TJP1_3, Q07157 = target: TJP1_3, Q07157
Chain of TJP1_3, Q07157 (Q07157 416-512): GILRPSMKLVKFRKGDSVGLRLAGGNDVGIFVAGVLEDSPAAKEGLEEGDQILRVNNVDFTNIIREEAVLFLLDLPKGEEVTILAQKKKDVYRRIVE

SNTG2, Q9NY99 = target: T5, SNTG2, Q9NY99
IL16_1, Q14005 = target: IL16_1, Q14005
Chain of IL16_1, Q14005 (Q14005 210-306): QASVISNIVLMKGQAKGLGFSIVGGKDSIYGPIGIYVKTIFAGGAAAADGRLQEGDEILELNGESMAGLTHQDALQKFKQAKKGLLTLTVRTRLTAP

PICK1, Q9NRD5 = target: PICK1, Q9NRD5
Chain of PICK1, Q9NRD5 (Q9NRD5 17-115): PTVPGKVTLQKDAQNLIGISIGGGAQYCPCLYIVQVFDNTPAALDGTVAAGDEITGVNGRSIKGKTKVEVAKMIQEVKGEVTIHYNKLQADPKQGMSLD

MPP6, Q9NZW5 = target: T6, MPP6, Q9NZW5
PARD3_3, Q8TEW0 = target: PARD3_3, Q8TEW0
Chain of PARD3_3, Q8TEW0 (Q8TEW0 582-685): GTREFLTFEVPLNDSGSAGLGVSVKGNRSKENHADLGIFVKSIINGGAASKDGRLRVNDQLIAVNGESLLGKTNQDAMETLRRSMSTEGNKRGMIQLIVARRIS

Inadl_3, Q8NI35 = target: Inadl_3, Q8NI35
Chain of Inadl_3, Q8NI35 (Q8NI35 359-469): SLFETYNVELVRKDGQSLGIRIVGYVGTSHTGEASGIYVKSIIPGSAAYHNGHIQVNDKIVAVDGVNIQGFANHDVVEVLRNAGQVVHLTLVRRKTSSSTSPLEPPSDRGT

Inadl_1, Q8NI35 = target: Inadl_1, Q8NI35
Chain of Inadl_1, Q8NI35 (Q8NI35 113-229): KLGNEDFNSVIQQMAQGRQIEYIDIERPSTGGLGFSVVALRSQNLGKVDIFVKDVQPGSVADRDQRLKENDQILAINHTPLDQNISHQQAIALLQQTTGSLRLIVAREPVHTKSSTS

NHERF4_4, Q86UT5 = target: NHERF4_4, Q86UT5
Chain of NHERF4_4, Q86UT5 (Q86UT5 464-550): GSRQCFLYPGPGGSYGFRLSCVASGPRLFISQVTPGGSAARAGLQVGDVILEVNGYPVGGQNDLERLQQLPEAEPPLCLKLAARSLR

IL16_4, Q14005 = target: IL16_4, Q14005
Chain of IL16_4, Q14005 (Q14005 1229-1329): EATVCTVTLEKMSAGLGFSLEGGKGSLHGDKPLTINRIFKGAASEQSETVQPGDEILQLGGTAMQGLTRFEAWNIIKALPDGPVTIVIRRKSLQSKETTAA

LRRC7, Q96NW7 = target: T7, LRRC7, Q96NW7
SCRIB_3, Q14160 = target: SCRIB_3, Q14160
Chain of SCRIB_3, Q14160 (Q14160 999-1103): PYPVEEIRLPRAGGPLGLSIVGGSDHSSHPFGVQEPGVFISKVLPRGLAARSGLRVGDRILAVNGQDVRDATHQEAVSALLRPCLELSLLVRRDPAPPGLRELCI

GRIP2_6, Q9C0E4 = target: GRIP2_6, Q9C0E4
Chain of GRIP2_6, Q9C0E4 (Q9C0E4 648-740): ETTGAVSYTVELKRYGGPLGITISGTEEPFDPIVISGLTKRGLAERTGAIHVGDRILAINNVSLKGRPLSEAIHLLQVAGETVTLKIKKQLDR

GRASP, Q7Z6J2 = target: GRASP, Q7Z6J2
Chain of GRASP, Q7Z6J2 (Q7Z6J2 96-193): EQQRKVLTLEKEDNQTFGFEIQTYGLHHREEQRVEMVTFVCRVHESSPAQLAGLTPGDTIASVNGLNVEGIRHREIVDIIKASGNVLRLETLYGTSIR

DLG1_2, Q12959 = target: DLG1_2, Q12959
Chain of DLG1_2, Q12959 (Q12959 314-412): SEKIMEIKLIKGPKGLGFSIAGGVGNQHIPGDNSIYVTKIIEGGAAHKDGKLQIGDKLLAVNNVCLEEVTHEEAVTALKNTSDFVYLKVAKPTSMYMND

TIAM2, Q8IVF5 = target: T8, TIAM2, Q8IVF5
LIMK2, P53671 = target: LIMK2, P53671
Chain of LIMK2, P53671 (P53671 143-248): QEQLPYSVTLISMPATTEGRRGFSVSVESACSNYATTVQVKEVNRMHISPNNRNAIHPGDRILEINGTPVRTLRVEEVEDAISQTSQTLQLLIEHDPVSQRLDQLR

Row | pKd (PARD3B_1, Q8TEW8) | pKd (PTPN3, P26045) | pKd (NHERF3_3, Q5T2W1) | pKd (NHERF3_1, Q5T2W1) | pKd (DLG1_3, Q12959) | pKd (LAP2, Q96RT1) | pKd (SCRIB_1, Q14160) | pKd (DLG4_3, P78352) | pKd (ARHGEF12, Q9NZN5-2) | pKd (DLG4_2, P78352) | pKd (SNTG1, Q9NSN8) | pKd (MAST2, Q6P0Q8) | pKd (LDB3, O75112) | pKd (TJP1_3, Q07157) | pKd (SNTG2, Q9NY99) | pKd (IL16_1, Q14005) | pKd (PICK1, Q9NRD5) | pKd (MPP6, Q9NZW5) | pKd (PARD3_3, Q8TEW0) | pKd (Inadl_3, Q8NI35) | Binder | further results
1 | below the threshold | 4.31 | below the threshold | 4.31 | 4.16 | 3.88 | 4.57 | 4.44 | 4.74 | 5.87 | 3.63 | 5.66 | below the threshold | below the threshold | 4.13 | below the threshold | 4.05 | below the threshold | below the threshold | 3.99 | RRRESYSTTV [EVI5, O60447] | pKd (Inadl_1, Q8NI35): below the threshold; pKd (NHERF4_4, Q86UT5): below the threshold; pKd (IL16_4, Q14005): below the threshold; pKd (LRRC7, Q96NW7): below the threshold; pKd (SCRIB_3, Q14160): 4.48; pKd (GRIP2_6, Q9C0E4): 4.61; pKd (GRASP, Q7Z6J2): 4.55; pKd (DLG1_2, Q12959): 5.57; pKd (TIAM2, Q8IVF5): below the threshold; pKd (LIMK2, P53671): below the threshold
2 | below the threshold | 4.26 | 3.54 | below the threshold | below the threshold | 3.9 | below the threshold | below the threshold | 3.65 | 3.88 | below the threshold | 3.61 | below the threshold | below the threshold | below the threshold | below the threshold | below the threshold | below the threshold | below the threshold | below the threshold | LRSPRTPSEV [OR10G3, Q8NGC4] | pKd (Inadl_1, Q8NI35): below the threshold; pKd (NHERF4_4, Q86UT5): below the threshold; pKd (IL16_4, Q14005): 3.53; pKd (LRRC7, Q96NW7): 3.48; pKd (SCRIB_3, Q14160): 3.61; pKd (GRIP2_6, Q9C0E4): below the threshold; pKd (GRASP, Q7Z6J2): below the threshold; pKd (DLG1_2, Q12959): 4.1; pKd (TIAM2, Q8IVF5): below the threshold; pKd (LIMK2, P53671): below the threshold
